Source: patent publication US7531643

What was measured:
[1] = target: human Integrin Associated Protein (IAP) (human) (UniProt Q08722); test: cell ELISA, CF1-hIAP-55-8 minus CF1-pCOS1, antibody at 3 µg/ml
[2] = target: human Integrin Associated Protein (IAP) (human) (UniProt Q08722); test: cell ELISA on PLP-fixed CF-1 cells expressing human IAP, antibody at 3 µg/ml
[3] = target: human Integrin Associated Protein (IAP) (human) (UniProt Q08722); test: cell-based or functional assay
[4] = target: human Integrin Associated Protein (IAP) (human) (UniProt Q08722); test: cell ELISA, CF1-hIAP-55-8 minus CF1-pCOS1, hybridoma culture supernatant
[5] = target: human Integrin Associated Protein (IAP) (human) (UniProt Q08722); test: cell ELISA on PLP-fixed CF-1 cells expressing human IAP, hybridoma culture supernatant

Sequence of UniProt Q08722 (Q08722 19-323): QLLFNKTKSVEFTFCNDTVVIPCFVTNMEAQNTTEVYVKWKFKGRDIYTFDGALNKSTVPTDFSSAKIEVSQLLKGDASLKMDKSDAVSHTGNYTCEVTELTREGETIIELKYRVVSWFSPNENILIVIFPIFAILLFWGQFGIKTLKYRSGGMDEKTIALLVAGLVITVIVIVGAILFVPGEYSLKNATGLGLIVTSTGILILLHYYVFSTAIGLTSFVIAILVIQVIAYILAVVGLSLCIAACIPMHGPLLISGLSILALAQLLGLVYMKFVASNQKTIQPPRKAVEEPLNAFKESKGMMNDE

What does the source list for “human IAP-recognizing anti-CD47 antibody (PharMingen)”?
Specific binding (absorbance, CF1-pCOS1 subtracted) [1]: 0.296 absorbance; absorbance in ELISA (raw data, CF1-hIAP-55-8) [2]: 0.456 absorbance

B1: monoclonal antibody of hybridoma 7D2-E3 (antibody, from another filing, IgG2a)
scFv: QVQLQQSGPELVKPGASVKMSCKASGYTFANHVIHWVKQKPGQGLEWIGYIYPYNDGTKYNEKFKDKATLTSDKSSTTAYMDLSSLASEDSAVYYCARGGYYTYDDWGQGTTLTVSSGGGGSGGGGSGGGGSDVVMTQSPLSLPVSLGDQASISCRSSQSLVHSNGKTYLHWYLQKPGQSPKLLIYKVSNRFSGVPDRFSGSGSVTDFTLMISRVEAEDLGVYFCSQSTHVPYTFGGGTKLEIKDYKDDDDK
Which percentage (%) of apoptosis of Jurkat cells, PI staining, flow cytometry (8G2 control supernatant 7.43%) [3] does the source give for B1 here?
Its percentage (%) of apoptosis of Jurkat cells, PI staining, flow cytometry (8G2 control supernatant 7.43%) is 9.84%.

And the Specific binding (absorbance, CF1-pCOS1 subtracted) [4]?
The Specific binding (absorbance, CF1-pCOS1 subtracted) was 0.379 absorbance.

What about the absorbance in ELISA (raw data, CF1-hIAP-55-8) [5] of the same molecule?
Its absorbance in ELISA (raw data, CF1-hIAP-55-8) is 0.568 absorbance.
